Data: patent US20210238289A1 (Biogen, published 2021)

B1: EAG2377 (hu5c8 IgG1 T299N) (antibody)
heavy: not shown
light: DIVLTQSPATLSVSPGERATISCRASQRVSSSTYSYMHWYQQKPGQPPKLLIKYASNLESGVPARFSGSGSGTDFTLTISSVEPEDFATYYCQHSWEIPPTFGGGTKLEIKRTVAAPSVFIFPPSDEQLKSGTASVVCLLNNFYPREAKVQWKVDNALQSGNSQESVTEQDSKDSTYSLSSTLTLSKADYEKHKVYACEVTHQGLSSPVTKSFNRGEC
B2: EAG2378 (hu5c8 IgG1 T299R) (antibody)
heavy: not shown
light: DIVLTQSPATLSVSPGERATISCRASQRVSSSTYSYMHWYQQKPGQPPKLLIKYASNLESGVPARFSGSGSGTDFTLTISSVEPEDFATYYCQHSWEIPPTFGGGTKLEIKRTVAAPSVFIFPPSDEQLKSGTASVVCLLNNFYPREAKVQWKVDNALQSGNSQESVTEQDSKDSTYSLSSTLTLSKADYEKHKVYACEVTHQGLSSPVTKSFNRGEC
B3: EAG2379 (hu5c8 IgG1 T299E) (antibody)
heavy: not shown
light: DIVLTQSPATLSVSPGERATISCRASQRVSSSTYSYMHWYQQKPGQPPKLLIKYASNLESGVPARFSGSGSGTDFTLTISSVEPEDFATYYCQHSWEIPPTFGGGTKLEIKRTVAAPSVFIFPPSDEQLKSGTASVVCLLNNFYPREAKVQWKVDNALQSGNSQESVTEQDSKDSTYSLSSTLTLSKADYEKHKVYACEVTHQGLSSPVTKSFNRGEC
B4: EAG2380 (hu5c8 IgG1 T299F) (antibody)
heavy: not shown
light: DIVLTQSPATLSVSPGERATISCRASQRVSSSTYSYMHWYQQKPGQPPKLLIKYASNLESGVPARFSGSGSGTDFTLTISSVEPEDFATYYCQHSWEIPPTFGGGTKLEIKRTVAAPSVFIFPPSDEQLKSGTASVVCLLNNFYPREAKVQWKVDNALQSGNSQESVTEQDSKDSTYSLSSTLTLSKADYEKHKVYACEVTHQGLSSPVTKSFNRGEC
B5: EAG2389 (hu5c8 IgG1 T299Q) (antibody)
heavy: not shown
light: DIVLTQSPATLSVSPGERATISCRASQRVSSSTYSYMHWYQQKPGQPPKLLIKYASNLESGVPARFSGSGSGTDFTLTISSVEPEDFATYYCQHSWEIPPTFGGGTKLEIKRTVAAPSVFIFPPSDEQLKSGTASVVCLLNNFYPREAKVQWKVDNALQSGNSQESVTEQDSKDSTYSLSSTLTLSKADYEKHKVYACEVTHQGLSSPVTKSFNRGEC
B6: IgG1 T299A (aglycosylated hu5c8 IgG1) (antibody)
heavy: not shown
light: DIVLTQSPATLSVSPGERATISCRASQRVSSSTYSYMHWYQQKPGQPPKLLIKYASNLESGVPARFSGSGSGTDFTLTISSVEPEDFATYYCQHSWEIPPTFGGGTKLEIKRTVAAPSVFIFPPSDEQLKSGTASVVCLLNNFYPREAKVQWKVDNALQSGNSQESVTEQDSKDSTYSLSSTLTLSKADYEKHKVYACEVTHQGLSSPVTKSFNRGEC
notes: also called IgG1 agly (T299A); agly IgG1
B7: EC331 (hu5c8 IgG4.P T299K, T307P, IgG4 CH2/IgG1 CH3 chimera, aglycosylated) (antibody)
heavy: QVQLVQSGAEVVKPGASVKLSCKASGYIFTSYYMYWVKQAPGQGLEWIGEINPSNGDTNFNEKFKSKATLTVDKSASTAYMELSSLRSEDTAVYYCTRSDGRNDMDSWGQGTLVTVSSASTKGPSVFPLAPCSRSTSESTAALGCLVKDYFPEPVTVSWNSGALTSGVHTFPAVLQSSGLYSLSSVVTVPSSSLGTKTYTCNVDHKPSNTKVDKRVESKYGPPCPPCPAPEFLGGPSVFLFPPKPKDTLMISRTPEVTCVVVDVSQEDPEVQFNWYVDGVEVHNAKTKPREEQFNSKYRVVSVLPVLHQDWLNGKEYKCKVSNKGLPSSIEKTISKAKGQPREPQVYTLPPSRDELTKNQVSLTCLVKGFYPSDIAVEWESNGQPENNYKTTPPVLDSDGSFFLYSKLTVDKSRWQQGNVFSCSVMHEALHNHYTQKSLSLSPG
light: DIVLTQSPATLSVSPGERATISCRASQRVSSSTYSYMHWYQQKPGQPPKLLIKYASNLESGVPARFSGSGSGTDFTLTISSVEPEDFATYYCQHSWEIPPTFGGGTKLEIKRTVAAPSVFIFPPSDEQLKSGTASVVCLLNNFYPREAKVQWKVDNALQSGNSQESVTEQDSKDSTYSLSSTLTLSKADYEKHKVYACEVTHQGLSSPVTKSFNRGEC
modifications: N-terminal Q largely converted to pyroglutamic acid (mass spectrometry)
notes: copies: 2 + 2
B8: IgG4.P T299A (aglycosylated hu5c8 IgG4.P S228P, T299A) (antibody)
heavy: not shown
light: DIVLTQSPATLSVSPGERATISCRASQRVSSSTYSYMHWYQQKPGQPPKLLIKYASNLESGVPARFSGSGSGTDFTLTISSVEPEDFATYYCQHSWEIPPTFGGGTKLEIKRTVAAPSVFIFPPSDEQLKSGTASVVCLLNNFYPREAKVQWKVDNALQSGNSQESVTEQDSKDSTYSLSSTLTLSKADYEKHKVYACEVTHQGLSSPVTKSFNRGEC
notes: also called agly IgG4.P; IgG4.P agly (S228P, T299A); copies: 2 + 2
B9: YC401 (hu5c8 IgG4.P S228P, T299A, T307P, D399S, aglycosylated) (antibody)
heavy: QVQLVQSGAEVVKPGASVKLSCKASGYIFTSYYMYWVKQAPGQGLEWIGEINPSNGDTNFNEKFKSKATLTVDKSASTAYMELSSLRSEDTAVYYCTRSDGRNDMDSWGQGTLVTVSSASTKGPSVFPLAPCSRSTSESTAALGCLVKDYFPEPVTVSWNSGALTSGVHTFPAVLQSSGLYSLSSVVTVPSSSLGTKTYTCNVDHKPSNTKVDKRVESKYGPPCPPCPAPEFLGGPSVFLFPPKPKDTLMISRTPEVTCVVVDVSQEDPEVQFNWYVDGVEVHNAKTKPREEQFNSAYRVVSVLPVLHQDWLNGKEYKCKVSNKGLPSSIEKTISKAKGQPREPQVYTLPPSQEEMTKNQVSLTCLVKGFYPSDIAVEWESNGQPENNYKTTPPVLSSDGSFFLYSRLTVDKSRWQEGNVFSCSVMHEALHNHYTQKSLSLSLG
light: DIVLTQSPATLSVSPGERATISCRASQRVSSSTYSYMHWYQQKPGQPPKLLIKYASNLESGVPARFSGSGSGTDFTLTISSVEPEDFATYYCQHSWEIPPTFGGGTKLEIKRTVAAPSVFIFPPSDEQLKSGTASVVCLLNNFYPREAKVQWKVDNALQSGNSQESVTEQDSKDSTYSLSSTLTLSKADYEKHKVYACEVTHQGLSSPVTKSFNRGEC
modifications: N-terminal Q largely converted to pyroglutamic acid (mass spectrometry)
notes: copies: 2 + 2
B10: YC403 (hu5c8 IgG4.P S228P, T299A, T307P, L309K, D399S, aglycosylated) (antibody)
heavy: QVQLVQSGAEVVKPGASVKLSCKASGYIFTSYYMYWVKQAPGQGLEWIGEINPSNGDTNFNEKFKSKATLTVDKSASTAYMELSSLRSEDTAVYYCTRSDGRNDMDSWGQGTLVTVSSASTKGPSVFPLAPCSRSTSESTAALGCLVKDYFPEPVTVSWNSGALTSGVHTFPAVLQSSGLYSLSSVVTVPSSSLGTKTYTCNVDHKPSNTKVDKRVESKYGPPCPPCPAPEFLGGPSVFLFPPKPKDTLMISRTPEVTCVVVDVSQEDPEVQFNWYVDGVEVHNAKTKPREEQFNSAYRVVSVLPVKHQDWLNGKEYKCKVSNKGLPSSIEKTISKAKGQPREPQVYTLPPSQEEMTKNQVSLTCLVKGFYPSDIAVEWESNGQPENNYKTTPPVLSSDGSFFLYSRLTVDKSRWQEGNVFSCSVMHEALHNHYTQKSLSLSLG
light: DIVLTQSPATLSVSPGERATISCRASQRVSSSTYSYMHWYQQKPGQPPKLLIKYASNLESGVPARFSGSGSGTDFTLTISSVEPEDFATYYCQHSWEIPPTFGGGTKLEIKRTVAAPSVFIFPPSDEQLKSGTASVVCLLNNFYPREAKVQWKVDNALQSGNSQESVTEQDSKDSTYSLSSTLTLSKADYEKHKVYACEVTHQGLSSPVTKSFNRGEC
modifications: N-terminal Q largely converted to pyroglutamic acid (mass spectrometry)
notes: copies: 2 + 2
B11: EAG2300 (hu5c8 IgG4 chimeric hinge + IgG1 CH3, glycosylated) (antibody)
heavy: QVQLVQSGAEVVKPGASVKLSCKASGYIFTSYYMYWVKQAPGQGLEWIGEINPSNGDTNFNEKFKSKATLTVDKSASTAYMELSSLRSEDTAVYYCTRSDGRNDMDSWGQGTLVTVSSASTKGPSVFPLAPCSRSTSESTAALGCLVKDYFPEPVTVSWNSGALTSGVHTFPAVLQSSGLYSLSSVVTVPSSSLGTKTYTCNVDHKPSNTKVDKRVESKYGPPCPPCPAPPVAGPSVFLFPPKPKDTLMISRTPEVTCVVVDVSQEDPEVQFNWYVDGVEVHNAKTKPREEQFNSTYRVVSVLTVLHQDWLNGKEYKCKVSNKGLPSSIEKTISKAKGQPREPQVYTLPPSRDELTKNQVSLTCLVKGFYPSDIAVEWESNGQPENNYKTTPPVLDSDGSFFLYSKLTVDKSRWQQGNVFSCSVMHEALHNHYTQKSLSLSPG
light: DIVLTQSPATLSVSPGERATISCRASQRVSSSTYSYMHWYQQKPGQPPKLLIKYASNLESGVPARFSGSGSGTDFTLTISSVEPEDFATYYCQHSWEIPPTFGGGTKLEIKRTVAAPSVFIFPPSDEQLKSGTASVVCLLNNFYPREAKVQWKVDNALQSGNSQESVTEQDSKDSTYSLSSTLTLSKADYEKHKVYACEVTHQGLSSPVTKSFNRGEC
modifications: N-terminal Q largely converted to pyroglutamic acid; N-linked G0F/G1F/G2F glycans (mass spectrometry)
notes: also called pEAG2300; copies: 2 + 2

Target: T1, CD64 (FcγRI) (UniProt P12314 16-288, limits assumed)
Test: solution competition SPR (Biacore)
Procedure: (§1) Binding to Fcγ receptors was analyzed using solution affinity surface plasmon resonance (ref Day E S, Cachero T G, Qian F, Sun Y, Wen D, Pelletier M, Hsu Y M, Whitty A. Selectivity of BAFF/BLyS and APRIL for binding to the TNF family receptors BAFFR/BR3 and BCMA. Biochemistry. 2005 Feb. 15; 44(6):1919-31.) The method utilizes conditions of so-called “mass-transport-limited” binding, in which the initial rate of ligand binding (protein binding to the senor chip) is proportional to the concentration of ligand in solution (ref BIApplications Handbook (1994) Chapter 6: Concentration measurement, pp 6-1-6-10, Pharmacia Biosensor AB). Under these conditions, binding of the soluble analyte (protein flowing over chip surface) to the immobilized protein on the chip is fast compared to the diffusion of the analyte into the dextran matrix on the chip surface. Therefore, the diffusion properties of the analyte and the concentration of analyte in solution flowing over the chip surface determine the rate at which analyte binds to the chip. In this experiment, the concentration of free Fc receptor in solution is determined by the initial rate of binding to a CM5 Biacore chip containing an immobilized IgG1 MAb. Into these Fc receptor solutions were titrated the stability engineered constructs (see Table 10.1 below). […] Initial binding rates were obtained from raw sensorgram data (FIG. 14). […] The results are shown in Table 10.1 and reported as the average of two titrations.

With B1 as the binder, how does the IC50 read?
The IC50 was 586 µM.

Which IC50 does the source give for B2 here?
The IC50 was 5970 µM.

How did the IC50 turn out when B3 was run?
Its IC50 is 196 µM.

How did the IC50 turn out when B4 was run?
Its IC50 is 345 µM.

B5 was tested. Which IC50 did it give?
The IC50 was 455 µM.

Target: T1, CD64 (FcγRI)
Test: solution competition SPR (Biacore); construct titrated into receptor, free receptor read on immobilized IgG1 MAb
Procedure: as §1

For B6, which IC50 is on record?
The IC50 was 205 µM.

For B7, which IC50 is on record?
Its IC50 is 2600 µM.

B8 was tested. Which IC50 did it give?
The IC50 was 739 µM.

For B9, which IC50 is on record?
Its IC50 is 377 µM.

B10 was tested. Which IC50 did it give?
Its IC50 is 434 µM.

With B11 as the binder, how does the IC50 read?
Its IC50 is 3020 µM.
